In paper PMC11659886, “Bioinformatics-Facilitated Identification of Novel Bacterial Sulfoglycosidases That Hydrolyze 6-Sulfo-N-acetylglucosamine” (ACS Bio & Med Chem Au, 2024):

How the values were obtained:
[1] = system: T1, CC(=O)N[C@H]1[C@H](Oc2ccc3c(C)cc(=O)oc3c2)O[C@H](COS(=O)(=O)O)[C@@H](O)[C@@H]1O; test: fluorometric release of 4-methylumbelliferone, Michaelis-Menten fit; type: biochemical, Bacteroides thetaiotaomicron; details: pH 5.5, 25 °C, 25 mM Bis-tris propane, 25 mM citrate, 300 mM NaCl
T1 construct: residues 22-546, His6-tagged (pET23-Bt4394(22-546)-6His), expressed in E. coli BL21(DE3)
From the text: (§1) fluorometric release of 4-methylumbelliferone, Michaelis-Menten fit on Bt4394

[2] = system: CC(=O)N[C@H]1[C@H](Oc2ccc3c(C)cc(=O)oc3c2)O[C@H](COS(=O)(=O)O)[C@@H](O)[C@@H]1O; test: purified protein; details: pH 6.0, 25 °C, 25 mM Bis-tris propane, 25 mM citrate, 300 mM NaCl
[3] = system: CC(=O)N[C@H]1[C@H](Oc2ccc3c(C)cc(=O)oc3c2)O[C@H](CO)[C@@H](O)[C@@H]1O; test: fluorometric release of 4-methylumbelliferone, Michaelis-Menten fit; type: biochemical, Prevotella sp. CAG:5226; details: pH 6.0, 25 °C, 25 mM Bis-tris propane, 25 mM citrate, 300 mM NaCl
From the text: (§2) fluorometric release of 4-methylumbelliferone, Michaelis-Menten fit on WG enzyme

[4] = system: CC(=O)N[C@H]1[C@H](Oc2ccc3c(C)cc(=O)oc3c2)O[C@H](COS(=O)(=O)O)[C@@H](O)[C@@H]1O; test: as above; type: biochemical, Prevotella sp. CAG:5226; details: pH 6.0, 25 °C, 25 mM Bis-tris propane, 25 mM citrate, 300 mM NaCl
From the text: as §2

[5] = system: CC(=O)N[C@H]1[C@H](Oc2ccc3c(C)cc(=O)oc3c2)O[C@H](CO)[C@@H](O)[C@@H]1O; test: purified protein; details: pH 6.0, 25 °C, 25 mM Bis-tris propane, 25 mM citrate, 300 mM NaCl
From the text: fluorometric release of 4-methylumbelliferone, Michaelis-Menten fit on YG enzyme

[6] = substrate: CC(=O)N[C@H]1[C@H](Oc2ccc3c(C)cc(=O)oc3c2)O[C@H](CO)[C@@H](O)[C@@H]1O; test: fluorometric release of 4-methylumbelliferone, Michaelis-Menten fit; type: biochemical, Bacteroides thetaiotaomicron; details: pH 5.5, 25 °C, 25 mM Bis-tris propane, 25 mM citrate, 300 mM NaCl
From the text: as §1

[7] = substrate: CC(=O)N[C@H]1[C@H](Oc2ccc3c(C)cc(=O)oc3c2)O[C@H](COS(=O)(=O)O)[C@@H](O)[C@@H]1O; test: as above; type: biochemical, Bacteroides thetaiotaomicron; details: pH 5.5, 25 °C, 25 mM Bis-tris propane, 25 mM citrate, 300 mM NaCl
From the text: as §1

“Bt4394 (Bacteroides thetaiotaomicron VPI-5482; I432G/Q431Y)” showed a Km [1] of 546 ± 37 µM, a kcat [1] of 31.6 ± 0.7 s⁻¹ and a kcat/Km [1] of 60000 ± 20000 M⁻¹ s⁻¹.

In the case of “WG enzyme (Prevotella sp. CAG:5226; N423D)”, the Km [2] is reported as 56 ± 6 µM, the kcat [2] is reported as 69 ± 4 s⁻¹ and the kcat/Km [2] is reported as 1.2e+06 ± 700000 M⁻¹ s⁻¹.

WG enzyme (Prevotella sp. CAG:5226) gave a Km [3] of 2706 ± 344 µM, a kcat [3] of 11.6 ± 0.5 s⁻¹ and a kcat/Km [3] of 4000 ± 2000 M⁻¹ s⁻¹. The Km [4] was 5.1 ± 0.3 µM, the kcat [4] was 39.9 ± 0.6 s⁻¹ and the kcat/Km [4] was 8e+06 ± 2e+06 M⁻¹ s⁻¹.

“Bt4394 (Bacteroides thetaiotaomicron VPI-5482; I432G/Q431W)” showed a Km [1] of 194 ± 16 µM, a kcat [1] of 12 ± 0.3 s⁻¹ and a kcat/Km [1] of 60000 ± 20000 M⁻¹ s⁻¹.

“YG enzyme (Alloprevotella sp. oral taxon 473 str. F0040; R446A)” gave a Km [2] of 90 ± 9 µM, a kcat [2] of 97 ± 3 s⁻¹ and a kcat/Km [2] of 1.1e+06 ± 300000 M⁻¹ s⁻¹.

“YG enzyme (Alloprevotella sp. oral taxon 473 str. F0040; N445D)” gave a Km [2] of 130 ± 14 µM, a kcat [2] of 98 ± 3 s⁻¹ and a kcat/Km [2] of 800000 ± 200000 M⁻¹ s⁻¹.

With “WG enzyme (Prevotella sp. CAG:5226; R424A)” the Km [2] was 47 ± 6 µM, the kcat [2] was 62 ± 2 s⁻¹ and the kcat/Km [2] was 1.3e+06 ± 300000 M⁻¹ s⁻¹.

“WG enzyme (Prevotella sp. CAG:5226; W417A)” gave a Km [2] of 17 ± 2 µM, a kcat [2] of 45 ± 1 s⁻¹ and a kcat/Km [2] of 2.6e+06 ± 300000 M⁻¹ s⁻¹.

For “YG enzyme (Alloprevotella sp. oral taxon 473 str. F0040)”, the Km [5] was 2209 ± 355 µM, the kcat [5] was 11.7 ± 0.7 s⁻¹ and the kcat/Km [5] was 5000 ± 2000 M⁻¹ s⁻¹. For the same molecule, the Km [2] was 12 ± 1 µM, the kcat [2] was 76 ± 2 s⁻¹ and the kcat/Km [2] was 6e+06 ± 2e+06 M⁻¹ s⁻¹.

B1: Bt4394 (Bacteroides thetaiotaomicron VPI-5482) (protein)
chain: QEIALTPQPAHLTVKDGRFEFGNQLKAKVTPYQGDSIRMVFESFKKELQEATGIKVSSTQKEAKARIILDLNPQLPAEAYKLNVSKKQVRIEASRPAGFYYALQTLKQLMPRNVMAGVATSDHSQWSLPSVEIEDAPRFEWRGFMLDEGRHFFGKDEIKRVIDMMAIYKMNRFHWHLTEDQGWRIEIKKYPKLTETGAWRNSKVLAYGDVKPDGERYGGFYTQKDIKEIVAYAKKKFIEIIPEIDIPGHSQAAVAAYPEFLACDPRDKHEVWLQQGISTDVINVANPKAMQFAKEVIDELTELFPFNYIHLGGDECPTRKWQKNDECKKLLSEIGSSNFRDLQIYFYKQLKDYIATKPADQQRQLIFWNEVLHGNTSILGNDITIMAWIGANAAAKQAAKQGMNTILSPQIPYYINRKQSKLPTEPMSQGHGTETVEAVYNYQPLKDVDAALQPYYKGVQANFWTEWVTEPSVLEYLMLPRLAAVAEAGWTPQEKRNYEDFKERIRKDAELYDLKGWNYGKHIMK
notes: residues 22-546, His6-tagged (pET23-Bt4394(22-546)-6His), expressed in E. coli BL21(DE3)
Molecule B1 has a Km [6] of 2183 ± 189 µM, a kcat [6] of 2.9 ± 0.1 s⁻¹ and a kcat/Km [6] of 1300 ± 500 M⁻¹ s⁻¹. The Km [7] was 39 ± 4 µM, the kcat [7] was 25.8 ± 0.7 s⁻¹ and the kcat/Km [7] was 700000 ± 200000 M⁻¹ s⁻¹.
